# Results published in US9062124B2, “GIP-based mixed agonists for treatment of metabolic disorders and obesity” (priority 2008, dated 2015).
# pEC50: −log10 of the molar value. Like-named read-outs stand apart in the source and are kept apart here. Where a SMILES comes first, the peptide text is derived from it. Bridges are numbered along the chain shown (N, C = ends). Where no end group is shown, it is not given here. Side-chain parts run from the residue outwards. [ ]: non-standard residue; d: D form. The star is where a group is joined. Ac‑Cys(PEG 40 kDa) = Cys whose alpha-amino group is acetylated and whose side chain carries a 40 kDa PEG; PEG 40 kDa = PEG (40 kDa) covalently attached to Cys; C18 acyl = 18 carbon fatty acyl group; Palmitoyl = CCCCCCCCCCCCCCCC(=O)*; Nle = CCCC[C@H](N)C(=O)O; Aib = CC(C)(N)C(=O)O
# Key:
# Assay type in all cases: cell-based
# glucagon receptor = biological target: T1, glucagon receptor (Homo sapiens, UniProt P47871); experiment: cAMP synthesis functional assay (firefly luciferase reporter in HEK293 cells), glucagon receptor; conditions: for pEC50: read-out: Glucagon Receptor EC50
# T1 construct: expressed in transfected cells; host or cells: HEK293
# T1 sequence (P47871 26-477): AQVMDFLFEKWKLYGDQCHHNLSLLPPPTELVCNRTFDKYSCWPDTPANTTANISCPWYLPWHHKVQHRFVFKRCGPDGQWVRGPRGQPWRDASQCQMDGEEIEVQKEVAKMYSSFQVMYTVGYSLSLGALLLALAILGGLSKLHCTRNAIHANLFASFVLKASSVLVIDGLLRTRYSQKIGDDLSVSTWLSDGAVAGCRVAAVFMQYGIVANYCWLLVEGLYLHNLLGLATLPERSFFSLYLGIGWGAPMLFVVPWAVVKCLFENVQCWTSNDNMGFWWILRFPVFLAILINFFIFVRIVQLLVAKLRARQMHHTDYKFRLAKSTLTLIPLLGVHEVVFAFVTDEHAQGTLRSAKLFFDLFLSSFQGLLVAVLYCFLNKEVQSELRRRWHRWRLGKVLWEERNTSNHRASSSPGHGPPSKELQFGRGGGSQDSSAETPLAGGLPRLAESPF
# GLP-1 receptor = biological target: T2, GLP-1 receptor (Homo sapiens, UniProt P43220); experiment: cAMP synthesis functional assay (firefly luciferase reporter in HEK293 cells), GLP-1 receptor; conditions: for pEC50: read-out: GLP-1 Receptor EC50
# T2 construct: expressed in transfected cells; host or cells: HEK293
# T2 sequence (P43220 24-463, species assumed): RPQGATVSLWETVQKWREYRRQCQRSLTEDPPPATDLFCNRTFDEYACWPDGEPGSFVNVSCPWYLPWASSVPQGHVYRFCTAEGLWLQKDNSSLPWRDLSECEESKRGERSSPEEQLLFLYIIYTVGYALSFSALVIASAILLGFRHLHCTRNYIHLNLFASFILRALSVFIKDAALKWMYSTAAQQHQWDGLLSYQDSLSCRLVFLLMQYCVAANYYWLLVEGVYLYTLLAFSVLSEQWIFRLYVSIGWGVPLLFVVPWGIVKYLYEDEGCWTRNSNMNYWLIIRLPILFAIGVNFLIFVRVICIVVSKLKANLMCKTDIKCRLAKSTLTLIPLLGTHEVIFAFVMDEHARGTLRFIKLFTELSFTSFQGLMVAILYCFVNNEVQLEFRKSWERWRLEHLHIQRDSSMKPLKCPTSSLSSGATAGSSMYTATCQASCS
# GIP receptor = biological target: T3, GIP receptor (Homo sapiens, UniProt P48546); experiment: cAMP synthesis functional assay (firefly luciferase reporter in HEK293 cells), GIP receptor; conditions: for pEC50: read-out: GIP Receptor EC50
# T3 construct: expressed in transfected cells; host or cells: HEK293
# T3 sequence (P48546 22-466): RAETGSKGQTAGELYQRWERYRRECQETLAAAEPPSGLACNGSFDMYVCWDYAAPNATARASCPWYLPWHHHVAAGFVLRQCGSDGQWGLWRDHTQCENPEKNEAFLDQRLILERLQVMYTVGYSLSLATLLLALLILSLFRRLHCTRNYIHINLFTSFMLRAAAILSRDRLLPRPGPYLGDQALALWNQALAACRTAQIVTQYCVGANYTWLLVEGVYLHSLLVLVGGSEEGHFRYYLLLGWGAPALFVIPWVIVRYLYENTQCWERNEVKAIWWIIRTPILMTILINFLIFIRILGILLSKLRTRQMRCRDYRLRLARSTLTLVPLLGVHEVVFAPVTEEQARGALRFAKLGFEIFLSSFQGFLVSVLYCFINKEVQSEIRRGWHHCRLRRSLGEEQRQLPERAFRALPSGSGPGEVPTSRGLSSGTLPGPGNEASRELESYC
# [1] = system: glucagon receptor, GLP-1 receptor or GIP receptor; experiment: Agonist profile across receptors assigned from the cAMP reporter assay data; conditions: assigned from the in vitro EC50 data of Tables 1-4
# [2] = Table 4, relative to the native hormone
# [3] = Table 1, relative to the native hormone of the indicated receptor
# [4] = relative to the standard (Std.) EC50 of the same run
# [5] = cAMP luciferase reporter assay as in Example 16
compound,measurement,setting,value
CC[C@H](C)[C@H](NC(=O)[C@H](CO)NC(=O)[C@H](Cc1ccc(O)cc1)NC(=O)[C@H](CC(=O)O)NC(=O)[C@H](CO)NC(=O)[C@@H](NC(=O)[C@H](Cc1ccccc1)NC(=O)[C@@H](NC(=O)CNC(=O)[C@H](CCC(N)=O)NC(=O)C(C)(C)NC(=O)[C@@H](N)Cc1ccc(O)cc1)[C@@H](C)O)[C@@H](C)CC)C(=O)N[C@@H](Cc1ccc(O)cc1)C(=O)N[C@@H](CC(C)C)C(=O)N[C@@H](CC(=O)O)C(=O)N[C@@H](CCCCN)C(=O)N[C@@H](CCC(N)=O)C(=O)N[C@@H](C)C(=O)N[C@@H](C)C(=O)NC(C)(C)C(=O)N[C@@H](CCC(=O)O)C(=O)N[C@@H](Cc1ccccc1)C(=O)N[C@H](C(=O)N[C@@H](CC(N)=O)C(=O)N[C@@H](Cc1c[nH]c2ccccc12)C(=O)N[C@@H](CC(C)C)C(=O)N[C@@H](CC(C)C)C(=O)N[C@@H](C)C(=O)NCC(=O)NCC(=O)N1CCC[C@H]1C(=O)N[C@@H](CO)C(=O)N[C@@H](CO)C(=O)NCC(=O)N[C@@H](C)C(=O)N1CCC[C@H]1C(=O)N1CCC[C@H]1C(=O)N1CCC[C@H]1C(=O)N[C@@H](CO)C(=O)N[C@@H](CCCCN)C(N)=O)C(C)C [mt-357] (H-Y[Aib]QGTFISDYSIYLDKQAA[Aib]EFVNWLLAGGPSSGAPPPSK-NH2; N-terminus assumed),Glucagon Receptor relative activity,glucagon receptor; [2],260.92%
same,GLP-1 Receptor relative activity,GLP-1 receptor; [2],0.86%
same,GIP Receptor relative activity,GIP receptor; [2],206.37%
CCCCCCCCCCCCCCCC(=O)NCCCC[C@H](NC(=O)[C@H](CO)NC(=O)[C@@H]1CCCN1C(=O)[C@@H]1CCCN1C(=O)[C@@H]1CCCN1C(=O)[C@H](C)NC(=O)CNC(=O)[C@H](CO)NC(=O)[C@H](CO)NC(=O)[C@@H]1CCCN1C(=O)CNC(=O)CNC(=O)[C@H](C)NC(=O)[C@H](CC(C)C)NC(=O)[C@H](CC(C)C)NC(=O)[C@H](Cc1c[nH]c2ccccc12)NC(=O)[C@H](CC(N)=O)NC(=O)[C@@H](NC(=O)[C@H](Cc1ccccc1)NC(=O)[C@H](CCC(=O)O)NC(=O)C(C)(C)NC(=O)[C@H](C)NC(=O)[C@H](C)NC(=O)[C@H](CCC(N)=O)NC(=O)[C@H](CCCCN)NC(=O)[C@H](CC(=O)O)NC(=O)[C@H](CC(C)C)NC(=O)[C@H](Cc1ccc(O)cc1)NC(=O)[C@@H](NC(=O)[C@H](CO)NC(=O)[C@H](Cc1ccc(O)cc1)NC(=O)[C@H](CC(=O)O)NC(=O)[C@H](CO)NC(=O)[C@@H](NC(=O)[C@H](Cc1ccccc1)NC(=O)[C@@H](NC(=O)CNC(=O)[C@H](CCC(N)=O)NC(=O)C(C)(C)NC(=O)[C@@H](N)Cc1ccc(O)cc1)[C@@H](C)O)[C@@H](C)CC)[C@@H](C)CC)C(C)C)C(N)=O [mt-358] (H-Y[Aib]QGTFISDYSIYLDKQAA[Aib]EFVNWLLAGGPSSGAPPPSK(Palmitoyl)-NH2; N-terminus assumed),Glucagon Receptor relative activity,glucagon receptor; [2],1266.00%
same,GLP-1 Receptor relative activity,GLP-1 receptor; [2],13.04%
same,EC50,"GIP receptor; GIP Receptor EC50, nM, Table 4",0.0045 nM
same,GIP Receptor relative activity,GIP receptor; [2],305.62%
Y[Aib]EGTFISDYSIAMDKIHQQDFVNWLLAQKGKKNWLKHNITQ-NH2 [mt-100],Glucagon Receptor relative activity,glucagon receptor; [3],0.01%
same,GLP-1 Receptor relative activity,GLP-1 receptor; [3],0.01%
same,GIP Receptor relative activity,GIP receptor; [3],306.25%
Y[Aib]EGTFTSDYSIYLDEQAAKEFVNWLLAGKGKKNWLKHNITQC-NH2 (lactam 16-20) [mt-206],Glucagon Receptor relative activity,glucagon receptor; [3],0.01%
same,GLP-1 Receptor relative activity,GLP-1 receptor; [3],32.63%
same,GIP Receptor relative activity,GIP receptor; [3],13.04%
"mt-172: glucagon analog peptide, C-terminal amide (Y[Aib]QGTFTSDYSIYLDEQAAKEFVC(PEG 40 kDa)WLLAG-NH2; lactam 16-20)",receptor activity profile (glucagon / GLP-1 / GIP agonism),[1],exemplary GLP-1/GIP/glucagon triagonist peptides
"mt-175: glucagon analog peptide, C-terminal amide (Y[Aib]QGTFTSDYSIYLDEQAAKEFVC(PEG 40 kDa)WLLAGGPSSGAPPPS-NH2; lactam 16-20)",receptor activity profile (glucagon / GLP-1 / GIP agonism),[1],exemplary GLP-1/GIP/glucagon triagonist peptides
"mt-202: glucagon analog peptide, C-terminal amide (Y[Aib]QGTFVSDYSIYLDEQAAKEFVNWLLAGGPSSGAPPPSC(PEG 40 kDa)-NH2; lactam 16-20)",Glucagon Receptor relative activity,glucagon receptor; [3],2.84%
same,pEC50,glucagon receptor; Table 1,8.63
same,GLP-1 Receptor relative activity,GLP-1 receptor; [3],0.18%
same,pEC50,GLP-1 receptor; Table 1,7.80
same,GIP Receptor relative activity,GIP receptor; [3],1.32%
same,pEC50,GIP receptor; Table 1,8.66
"mt-203: glucagon analog peptide, C-terminal amide (Y[Aib]QGTFTSDYSIYLDEQAAKEFVNWL[Nle]AGGPSSGAPPPSC(PEG 40 kDa)-NH2; lactam 16-20)",Glucagon Receptor relative activity,glucagon receptor; [3],1.38%
same,pEC50,glucagon receptor; Table 1,8.32
same,GLP-1 Receptor relative activity,GLP-1 receptor; [3],20.71%
same,pEC50,GLP-1 receptor; Table 1,9.85
same,GIP Receptor relative activity,GIP receptor; [3],0.24%
same,pEC50,GIP receptor; Table 1,7.91
"mt-205: glucagon analog peptide, C-terminal amide (Y[Aib]EGTFTSDYSIYLDEQAAKEFVNWLLAGRPSSGAPPPSC(PEG 40 kDa)-NH2; lactam 16-20)",Glucagon Receptor relative activity,glucagon receptor; [3],0.01%
same,pEC50,glucagon receptor; Table 1,6.17
same,GLP-1 Receptor relative activity,GLP-1 receptor; [3],14.22%
same,pEC50,GLP-1 receptor; Table 1,9.69
same,GIP Receptor relative activity,GIP receptor; [3],1.74%
same,pEC50,GIP receptor; Table 1,8.78
"mt-225: pegylated monomer with lactam bridge between Glu16 and Lys20, PEG attached via dipeptide spacer (Y[Aib]QGTFTSDYSIYLDEQAAKEFVNWLLAGGPSSGAPPPSK([Ala-Ac‑Cys(PEG 40 kDa)])-NH2; lactam 16-20)",Glucagon Receptor relative activity,glucagon receptor; [2],1.99%
same,GLP-1 Receptor relative activity,GLP-1 receptor; [2],29.59%
same,GIP Receptor relative activity,GIP receptor; [2],0.90%
"mt-227: pegylated monomer with lactam bridge between Glu16 and Lys20, PEG attached via dipeptide spacer (Y[Aib]QGTFTSDYSIYLDEQAAKEFVNWLLAGGPSSGAPPPSK([Arg-Ac‑Cys(PEG 40 kDa)])-NH2; lactam 16-20)",Glucagon Receptor relative activity,glucagon receptor; [2],1.27%
same,GLP-1 Receptor relative activity,GLP-1 receptor; [2],36.25%
same,GIP Receptor relative activity,GIP receptor; [2],1.29%
mt-248: sequence of mt-170 with an AIB at position 16 in lieu of the lactam (Y[Aib]QGTFTSDYSIYLD[Aib]QAAKEFVNWLLAGGPSSGAPPPSC(PEG 40 kDa)-NH2),receptor activity profile (glucagon / GLP-1 / GIP agonism),[1],exhibited activities of glucagon/GLP-1/GIP triagonists
mt-281 (Y[Aib]QGTFTSDYSIYLDKQAA[Aib]EFVC(PEG 40 kDa)WLLAG-NH2),Glucagon Receptor relative activity,glucagon receptor; [4],16.65%
same,pEC50,GLP-1 receptor; [5],9.66
same,GLP-1 Receptor relative activity,GLP-1 receptor; [4],5.13%
same,pEC50,GIP receptor; [5],9.40
same,GIP Receptor relative activity,GIP receptor; [4],6.68%
"mt-310: acylated version of mt-274: C-terminal Lys with C18 fatty acyl group, 40 kDa PEG on Cys at position 24 (Y[Aib]EGTFTSDYSIYLDKQAA[Aib]EFVC(PEG 40 kDa)WLLAGGPSSGAPPPSK(C18 acyl)-NH2)",receptor activity profile (glucagon / GLP-1 / GIP agonism),[1],"exhibited activity at the GIP, GLP-1, and glucagon receptors"
"mt-376: acylated PEG-linked dimer, acylation at position 40 of each monomer (YXEGTFTSDYSIYLDKQAAXEFVNWLLAGGPSSGAPPPSKC; PEG-linked dimer, acylated at position 40; Mt-376; Homodimer; Xaa is Aib; 14 Carbon fatty acyl group covelently bound to Lysine; C-terminal amidation; Cys residue covalently attached to 20 kDa PEG which is in turn covalently attached to a Cys residue of a second peptide having the same structure)",Glucagon Receptor relative activity,glucagon receptor; [2],0.57%
same,pEC50,glucagon receptor; Table 4,7.87
same,GLP-1 Receptor relative activity,GLP-1 receptor; [2],126.82%
same,GIP Receptor relative activity,GIP receptor; [2],62.63%
"mt-377: acylated PEG-linked dimer, acylation at position 40 of each monomer (YXEGTFTSDYSIYLDKQAAXEFVNWLLAGGPSSGAPPPSKC; PEG-linked dimer, acylated at position 40; Mt-377; homodimer; Xaa is Aib; 14 Carbon fatty acyl group covalently bound to Lysine; PEG (5kDa) covalently bound to Cysteine; C-terminal amidation; Cys residue covalently attached to 5 kDa PEG which is in turn covalently attached to a Cys residue of a second peptide having the same structure)",Glucagon Receptor relative activity,glucagon receptor; [2],1.98%
same,pEC50,glucagon receptor; Table 4,8.41
same,GLP-1 Receptor relative activity,GLP-1 receptor; [2],177.88%
same,GIP Receptor relative activity,GIP receptor; [2],138.11%
